Laboratory results published in article doi:10.1101/2021.04.26.441501 (bioRxiv, 2021).

Molecular target: SARS-CoV-2 RBD (residues 319-514) with C-terminal hexahistidine tag (Severe acute respiratory syndrome …, UniProt P0DTC2)
Assay: ELISA

B1: SARS2-38 (murine IgG1 mAb) (antibody, V domains shown)
VH: QVQLKESGPGLVAPSQSLSITCTVSGFSLTRYGVHWVRQPPGKGLEWLGVIWADGSTYYNSALMSRLSISKDNSKSQVFLNMNSLQTDDTAKYYCARDGRGYDDYWGQGTTLTVSS
VL: QIVLTQSPAIMSASPGEKVTMTCSASSTVSFIYWYQQKPGSSPRLLIYDTSNPASGVPVRFSGSGCGTSYYLTISRMEAEDAATYYCQQWNTYPLTFGAGTKLELK
Does B1 bind?
Result: binds
